The series in a line: label from the status in PepcDB records.

Turning to “MSVNDTGHSDNYTWNRQVYHRLKLALSLGLRRQLFLAVCDDLHLRNQVAARLHSTLAYPVGQVLYQSLDGKEASTSAYPRLVTLRLNLNEPNPIAQINQWLANYPPPIVGASKDNPGKPLPIPTFQLVGVEQLTKQTVASQRLFLHYLRLSEQFFAAQESSRFLESSVLLWVSRPWLSAIQQSAPQFWRWRTGVFVFAGEPTPTTQNSGHPERFSNSRSVKLGNLEQSALDELSMEGEVRSPSTTEFNFGDEVSLPTEILGNHPQPKEETPPLISELPPTQQKPQELTVRSSAANSSSLLSLSHVSQELTDLVLATINTKISSEAEDDWQPQELLLEIEELHSQSASGEILAAAYHQLGNLYRLRIEQGQSTLEDLMVAIIAYQESISYDENSPQLPDILNDLGTLYWMLYRTPPNLEEGQTYIEQGIEFYELALKIISPETHPDTYARVHNNLGTAYGDLARFASPAENWQQAVVSYSKALLHRTVESDPLKYAACQNNLGTAYWHLAQYNQPVVHLKKAIASYKQSLAHYNPQDEPLKYGMIQNNVGTAYWNLAQYEQPGENLQLAIDVYSEALKYRTAAMVPNACAATQNNLGTAYWHLANLPQTTKDVRQKLLILCINAYEEAIALAHSLSNVSLSFDLFATHNNLGLAHYQLVTDNYFSGDKGRRSHHLEAALDNHLQALNGLSKQPEAYQATFAYVVKTVRAFHNELGIQGQNLALSKVPGHLLPEILPKL”, the protein production result is listed as “failed”.
Turning to “MSVNGAFSPCVVIPCYNHGAMMASVLVRLAPLALPVFIVDDGSDAATQHVLNLLAAENDGVTLIRLANNSGKGAAVMRGIEAVAQAGFSHALQVDADGQHQIEDAPLLLDEAKTHPDCLISGRPRYDDSVPKSRLYGRYVTHVWVWIETLSLSIKDSMCGFRVYPVAATVSLLSRKSLGRRMDFDTEIMVRLYWAGTPSRFIETAVTYPENGLSHFDALHDNLRISWMHTRLFFGMLPRIPVLLMRQRQQHWAGVSERKGLLGMRFMLAVYQRLGRGVFTLFLWPVIAFYWLTGRTARKASQSWLRQIGEYAHQQDILLPKPLNSYHHFLRFGQAMLDKIASWRGDLHWGRDIDFAPGAQEAIEHGRQKGQLILASHLGDIEVCRALAPQVSGLVINALVFTENSQRFKQVLEEIAPQAGVNLIPVSNIGPDTAIMLQQKLDAGEWVAIVGDRTAVHRQRGGVRRVVWSPFLGKEAPFPQGPFVLAAALRCPVLLMFVIREQKKLRVYCEPFADSITLPRPTRQQALQQVVDRYAERLAHYALKSPLDWFNFFDFWSLPDDDGRTAGKKESLEHHHHHH”, the protein production result is listed as “failed”.
In the case of “MSVNPFQTMRARYFLIVFALLTVVARASNELIENTFHMQNSTFINILIFYILPITWIYFAYKKHRVAFSLFINRNETFNLVQVLYITIMLCVFSYGYLILYMYSFAWITPTFIMNALREPIMDSTGGYVYQVIMVVFIAPIIGEFVFRGFLLQRFAAKWGTSIAIIVVAILFALLHVDFLGAIVFSVVLSIVYIRTNSLLMPIAIHMLNNAFVIGASFLINKEEIMSFADFSNYTTFFPGLIIFITGLNLVLIFLFVNRKYWSKEMPAIYVEQEKSFSDVVGSK”, the protein production entry was “failed”.
The value for “MSVQLKCDAVNCVYNRSHLCSAEEIEVQGGETTGGDATFCGTFSSKSLGNFVSSLGNMNYSGSLKQAVSAEPIMDPKVHCNAVNCTYNDQRYCHADQVEIRNEVSHTAEELEHHHHHH” was “not failed”; that for “MSVWLLQMKTNAIITDITKSIVKMDRILVYRHTNPDPDAIGAQFGLVALLKAAYPEKLVVAMAPVPGHLAWIDTTDEQLVTPQATDLVIAVDCANHERLAGELPTGAFVIKIDHHPNHDPYGQLNWVDETYSSCSEMIYELAQAGCFTVTAAVATKLYAGIIGDTVRFSTPETSTRTLKIASALAATDIDIATISHHEMDLT” was “failed”; that for “MSYEKEFLKDFEDWVKTQIQVNQLAMATSQEVAQEDGDERAKDAFIRYESKLDAYEFLLGKFDNYKNGKAFHDIPDELFGARHY” was “not failed”.
As for “MSYFDQDDKEVLAPNSDVIAATTTTATTATHGIEVATEFKPVEHPVEPLDNDLPIQCPLPEPSILNDGRIWKERVSASMRRKGDLQIVKDEAASESDGSAPKPPRPPQPNRSILPSLSAPEHNLLNLLEECNAMPPVTSKNG”, the entry is “failed”; as for “MSYIPPHKRHSKDPTKPTPVPDSLVTKFKKNLDFKSSTSSVKRNKIIYSGDSISKWFLVGSNGIEDDVPSYVKFVPLSSDSVECRKGEKPSILMNNNVQNVNMNIGERKDERTQWLLVAEKVMEDLVLAYERVKTEMKEHHHVSRLVARFGKIFFYGSQAGPVAECSLKNLNKMFSTDLPMSYLQHIKSNVVPSHGFSIDKEKETYTVKVSHYSRPNATINCKCTRKEDGRLSMYKASLEFYVDLNPVRHLVVDVSCIDKNLDMRLTLTAKREITYLSDKEIGDIKALLESATVDPNVKGGLRWPFGKALSEDGYKEFEVCHVRATIYKNKTLRLRVRETDRFNETTGTGETKREVSLTLKDIDTKIQEQNTERGCVLEMLRDALGTIWDFLHCDAYLT”, “not failed”.
“MSYKVEAVPDSYAALGEGPHWDVDRQSLYYVDLESAGINRYDFKQNKVYRAKIEGEIFASFILPVENKPQEFAVGCGLRTVIVQWDGVSAVAKVTRTLFEVQPDLKENRLNDAKTDPNGRFYGGTMADSGDIFTQWKGELYSWQAGGQPNAIRSKVGISNGLAWDVKAKKFYFIDTNNHEVLAYDYNQSTGAVSNPKVIFDLRKIRPEGPLFPDGMTVDTDGNIYVATFNGGTVFKVNPSTGKILLEIKIPTTQITSVAFGGPNLDILYVTTANKFDQPKPAGTTFQVTGLNAKGYAGVNLKI”: the protein production entry is given as “failed”.
Turning to “MSYLDTATDLPNQTLFLEYLNIALSNARRHHAQVGVLLCQINNWSDLKRKRGDAVANAFLQEAGQKLKSNLRNGDIVSRWDKDEFIFLVSKVQDTSSLLGIAQRLMKPVLAPVTAGGRPFQPEITYGVALYPVDGEQVNDLIGHIRENLQQLLPQPTLEHHHHHH”, the protein production entry is on record as “failed”.
As for “MSYLGGYGLIYLVTIVGYFILASFLGSFQLSSDLFNFEFYSSLSGISALMVWAFWLFLIYLNIILVVRRLHDLNKSGWMGLLLFIPVVQFFFMLYLLLASGTAGTNQYGPVRPSTFIEKLMAWLILIAILISLISTVGFFYYFSGTDTIQTPTQILQKGTEYF”, the entry is “failed”; as for “MSYRTISAEEAVMAIKSGDRVFLHTAAATPLRLIEAMVSRASHLRDVEIVSLHTEGDAPYVRPEFQESFRLNAFFVGRNVRSAVQCGYADAIPIFLSDVPAMFYDGVMPLDVALVHVSPPDRHGYCSLGVSVDATRAAVHTARHVIAQVNPNMPRTHGEGLLHVSKIHSLVEVDDPLPETPRHELTDVERQIGQHIASIVEDGATLQMGIGAIPDATLAALTNHKDLGIHSEMFSDGVVDLVEKGVVNGRCKKTHNEIIVASFLVGTRKLYDFVDDNPLVEMFGSDYVNDTKEIRKNPKVTAINSAIEIDMTGQVCADSIGTRHFSGVGGQMDFIRGAALSPGGKPIIALPATTRKGESRIVTQLKPGAGVVTTRAHVQYVVTEYGIVNLHGKNLRQRAEALATIAHPDFREEILRQAHELYGRKSNCLID”, “failed”; as for “MSYSTFALCHWARDRQRGRKTVADMVHRMTQATARVIGLEDRGELAVGKRADINVIDLAQLALRPPQVCHDLPAGGRRLIQRATGYSLTMLAGEIVLRDDEPLEHHHHHH”, “not failed”.
In the case of “MSYTPMSDLGQQGLFDITRTLLQQPDLASLCEALSQLVKRSALADNAAIVLWQAQTQRASYYASREKDTPIKYEDETVLAHGPVRSILSRPDTLHCSYEEFCETWPQLAAGGLYPKFGHYCLMPLAAGGHIFGGCEFIRYDER”, the protein production entry is recorded as “failed”.
The value for “MTAAPLVSVLLPVYNAGPYLAAALGSILRQDYGRLEVIAIDDGSSDNSLEILERYRQADSRVSIISRENRGLVATLNEGLAAAQGELVARMDADDVAYPWRLSRQVALFEQRPELGFCGAGVDMLIRGRIARGRPDPVFRFGRMPILAMFFTIFMHPTVVYNRKVIEDADLHYDPTYRHAEDFDLFGRLAARYPAAMMPENLLVYRVHQASVTSRHGKEMRRTHLRIVAENLEREGLAEATRDLRDIGEAVSFDTVTRAADFIVALEERIRSLPAETRPSFEAGALNLFYFLYQLVADERQPPLTHELLRRTAKWNAIRRREKYALRPGAWAPWLSLASLAAGKQADAVEYFFKSAPAAAVLASHQVG” was “failed”; that for “MTAASETFDVVVVGAGPAGGQCARRLAQAGRTVLLVDQLKTWTDHDFSSGGTPLETLDRFQLPDRVIGSRWSQLRVVTTREDHTWKSARSLGCVLDFAALRQFLAEETTTHGGSVRLGWQYRDRQQLTDGRWQIRFRDRLTSSDRWVTSRAVVDATGSARKVIYTAAEPRPDYLRGVGIEYLIEVPETVYQRFADALHFYLGHHWLPKGYSWIFPMQSGRLKVGACWFHGDHRFLKPDQPLRHYIDLLLTEQVQCPDYRLVDVHGAAIDYSGDRCDRHVQASILGIGDAVSAINFLGGEGIRHGLESADRAAQVLDAWLQGTVPDLSSYEQQIRRRFDRLWTLSLRLGMKKYLQDSDAKIDRIVRWCCALSTDDLMAILFDYRFQRLGRRLGRFFWLSVMTRLRLRWQRWRRPSHVA” was “failed”.
“MTADLFDGLDDAPRRQDIAPGAALLSGFARANERELLAAIDAVVARAPFRHMMTPGGHTMSVAMTSCGSVGWVTDRRGYRYSPNDPDSATPWPKMPAVLRDLAQRAAADVGFAGFDPDACLINRYVPGAKMALHQDKDEADFSAPIVSVSLGLPAIFQFGGMARSDKPRRYELRHGDVLVWGGPSRLVYHGVLTLKDGEHPLLGRQRINLTFRKAL”: the protein production result is “failed”.
As for “MTAEDGAAYIAFLADPQPSAQWVGRRGTPRDRHDWRPFEGPLSPASIRHARKILSTLYGCLIEQGHARANPFEVLSLPTGGDAPRIQVARSFTEPQWRFLLRHVSSLPADDPRAARLTFMLHLAHASGLRISEQAVATVGHLTWSGHWTLAVPGPKPRQIPLPEAVIDALRGHLAARGLGRGFESLPAATPLIGRVKTGDEGDALSVAQIGAIWKRYFAQAATLAGGEDDAAQLAQASAHWMRHTAGAHAVARGVALEVVQQQLGHASLDTTSMYVLAA”, the entry is “failed”; as for “MTAFAAASPRAAVRTGFDGLAISVATRAMMKNLDQNFDAILITGPTASGKSALALRLARERNGVVINADSMQVYDTLRVLTARPSDHEMEGVPHRLYGHVPAGSAYSTGEWLRDISGLLSDLRGEGRFPVIVGGTGLYFKALTGGLSDMPAIPDDLREGLRARLIEEGAAKLHAELVSRDPSMAQMLQPGDGQRIVRALEVLEATGKSIRDFQRASGPMIIDPERAQKFIVLPERPVLHDRINRRFEAMMDSGAVEEVQALLALNLAPDATAMKAIGVAQIADMLTGRMGAAEVIEKSAAATRQYAKRQMTWFRNQMGDDWTRIQPLEHHHHHH”, “failed”.
Turning to “MTAIAPVITIDGPSGAGKGTLCKAMAEALQWHLLDSGAIYRVLALAALHHHVDVASEDALVPLASHLDVRFVSTNGNLEVILEGEDVSGEIRTQEVANAASQVAAFPRVREALLRRQRAFRELPGLIADGRDMGTVVFPDAPVKIFLDASSEERAHRRMLQLQEKGFSVNFERLLAEIKERDDRDRNRAVAPLVPAADALVLDSTTLSIEQVIEKALQYARQKLALA”, the protein production entry is on record as “failed”.
The value for “MTAIPLTFYLGLAALLFSIGLYGVMTHKSGIRMIMCIELMLNSANLNLVAFSSYTDTLNGQVFAIFSIALAAAEAAVGFAIFMAIYRMHDKINLDELNILRW” was “failed”.

Values taken from a protein production outcome set (Wang et al. 2014).
